Measured values as given in patent publication US20230137139A1, “BIOSYNTHESIS OF CANNABINOIDS AND C[…]” (priority 2020, published 2023).

B1: t865741 (protein)
chain: MGNTTSIAGRDCLISALGGNSALAVFPNELLWTADVHEYNLNLPVTPAAITYPETAAQIAGVVKCASDYDYKVQARSGGHSFGNYGLGGADGAVVVDMKHFTQFSMDDETYEAVIGPGTTLNDVDIELYNNGKRAMAHGVCPTIKTGGHFTIGGLGPTARQWGLALDHVEEVEVVLANSSIVRASNTQNQDVFFAVKGAAANFGIVTEFKVRTEPAPGLAVQYSYTFNLGSTAEKAQFVKDWQSFISAKNLTRQFMNNMVIFDGDIILEGLFFGSKEQYDALGLEDHFAPKNPGNILVLTDWLGMVGHALEDTILKLVGNTPTWFYAKSLGFRQDTLIPSAGIDEFFEYIANHTAGTPAWFVTLSLEGGAINDVAEDATAYAHRDVLFWVQLFMVNPVGPISDTTYEFTDGLYDVLARAVPESVGHAYLGCPDPRMEDAQQKYWRTNLPRLQELKEELDPKNTFHHPQGVMPA
B2: t865723 (protein)
chain: MGNTTSIAGRDCLISALGGNSALAVFPNELLWTADVHEYNLNLPVTPAAITYPETAAQIAGVVKCASDYDYKVQARSGGHSFGNYGLGGADGAVVVDMKHFTQFSMDDETYEAVIGPGTTLNDVDIELWNNGKRAMAHGVCPTIKTGGHFTIGGLGPTARQWGLALDHVEEVEVVLANSSIVRASNTQNQDVFFAVKGAAANFGIVTEFKVRTEPAPGLAVQYSYTFNLGSTAEKAQFVKDWQSFISAKNLTRQFYNNMVIFDGDIILEGLFFGSKEQYDALGLEDHFAPKNPGNILVLTDWLGMVGHALEDTILKLVGNTPTWFYAKSLGFRQDTLIPSAGIDEFFEYIANHTAGTPAWFVTLSLEGGAINDVAEDATAYAHRDVLFWVQLFMVNPVGPISDTTYEFTDGLYDVLARAVPESVGHAYLGCPDPRMEDAQQKYWRTNLPRLQELKEELDPKNTFHHPQGVMPA
B3: t865751 (protein)
chain: MGNTTSIAGRDCLISALGGNSALAVFPNELLWTADVHEYNLNLPVTPAAITYPETAAQIAGVVKCASDYDYKVQARSGGHSFGNYGLGGADGAVVVDMKHFTQFSMDDETYEAVIGPGTTLNDVDIELYNNGKRAMAHGVCPTIKTGGHFTIGGLGPTARQWGLALDHVEEVEVVLANSSIVRASNTQNQDVFFAVKGAAANFGIVTEFKVRTEPAPGLAVQYSYTFNLGSTAEKAQFVKDWQSFISAKNLTRQFYNNMVIFDGDIILEGLFFGSKEQYDALGLEDHFAPKNPGNILVLTDWLGMVGHALEDTILKLVGNTPTWFYAKSLGFRQDTLIPSAGIDEFFEYIANHTAGTPAWFVTLSLEGGAINDVAEDATAYAHRDVLFWVQLFMVNPVGPISDTTYEFTDGLYDVLARAVPEAVGHAYLGCPDPRMEDAQQKYWRTNLPRLQELKEELDPKNTFHHPQGVMPA
modifications: expressed in S. cerevisiae strain
B4: t865748 (protein)
chain: MGNTTSIAGRDCLISALGGNSALAVFPNELLWTADVHEFNLNLPVTPAAITYPETAAQIAGVVKCASDYDYKVQARSGGHSFGNYGLGGADGAVVVDMKHFTQFSMDDETYEAVIGPGTTLNDVDIELYNNGKRAMAHGVCPTIKTGGHFTIGGLGPTARQWGLALDHVEEVEVVLANSSIVRASNTQNQDVFFAVKGAAANFGIVTEFKVRTEPAPGLAVQYSYTFNLGSTAEKAQFVKDWQSFISAKNLTRQFYNNMVIFDGDIILEGLFFGSKEQYDALGLEDHFAPKNPGNILVLTDWLGMVGHALEDTILKLVGNTPTWFYAKSLGFRQDTLIPSAGIDEFFEYIANHTAGTPAWFVTLSLEGGAINDVAEDATAYAHRDVLFWVQLFMVNPVGPISDTTYEFTDGLYDVLARAVPESVGHAYLGCPDPRMEDAQQKYWRTNLPRLQELKEELDPKNTFHHPQGVMPA
modifications: expressed in S. cerevisiae strain
B5: t865720 (protein)
chain: MGNTTSIAGRDCLISALGGNSALAVFPNELLWTADVHEYNLNLPVTPAAITYPETAAQIAGVVKCASDYDYKVQARSGGHSFGNYGLGGADGAVVVDMKHFTQFSMDDETYEAVIGPGTTLGDVDKELYNNGKRAMAHGVCPTIKTGGHFTIGGLGPTARQWGLALDHVEEVEVVLANSSIVRASNTQNQDVFFAVKGAAANFGIVTEFKVRTEPAPGLAVQYSYTFNLGSTAEKAQFVKDWQSFISAKNLTRQFYNNMVIFDGDIILEGLFFGSKEQYDALGLEDHFAPKNPGNILVLTDWLGMVGHALEDTILKLVGNTPTWFYAKSLGFRQDTLIPSAGIDEFFEYIANHTAGTPAWFVTLSLEGGAINDVAEDATAYAHRDVLFWVQLFMVNPVGPISDTTYEFTDGLYDVLARAVPESVGHAYLGCPDPRMEDAQQKYWRTNLPRLQELKEELDPKNTFHHPQGVMPA
B6: t865736 (protein)
chain: MGNTTSIAGRDCLISALGGNSALAVFPNELLWTADVHEYNLNLPVTPAAITYPETAAQIAGVVKCASDYDYKVQARSGGHSFGNYGLGGADGAVVVDMKHFTQFSMDDETYEAVIGPGTTLNDVDIELYNNGKRAMAHGVCPTIKTGGHFTIGGLGPTARQWGLALDHVEEVEVVLANSSIVRASNTQNQDVFFAVKGAAANFGIVTEFKVRTEPAPGLAVQYSYTFNLGSTAEKAQFVKDWQSFISAKNLTRQFYNNMVIFDGDIILEGLFFGSKEQYDALGLEDHFAPKNPGSILVLTDWLGMVGHALEDTILKLVGNTPTWFYAKSLGFRQDTLIPSAGIDEFFEYIANHTAGTPAWFVTLSLEGGAINDVAEDATAYAHRDVLFWVQLFMVNPVGPISDTTYEFTDGLYDVLARAVPESVGHAYLGCPDPRMEDAQQKYWRTNLPRLQELKEELDPKNTFHHPQGVMPA

Assays:
[1] = test system: CBCVA, THCVA, and CBDVA production; test: In vivo TS activity assay, Example 2 protein engineering of A. niger CBCAS, cultures fed divaric acid; assay type: cell-based, S. cerevisiae; conditions: for Mean CBCVA / Mean CBDVA / Mean THCVA: S. cerevisiae strains expressing A. niger CBCAS mutants; for Mean CBCVA / Mean CBDVA / Mean THCVA / average CBCVA titer compared with the A. niger positive control: secondary screen; for Mean CBCVA / Mean CBDVA / Mean THCVA / % CBCVA / % CBDVA / % THCVA: fed divaric acid; for % CBCVA / % CBDVA / % THCVA: share of terminal cannabinoid product profile
Method: (§1) An assay to detect TS activity was conducted as follows: each thawed glycerol stock of candidate CBCAS transformants was stamped into a well of YEP+4% dextrose media. Samples were incubated at 30° C. in a shaking incubator for 2 days. A portion of each of the resulting cultures was stamped into a well of YEP+4% galactose+1 mM olivetolic acid (FIG. 1 Structure 6a). Samples were incubated at 20° C. and shaken in a shaking incubator for 4 days. Every 24 hours during those 4 days, 2% galactose and 1 mM olivetolic acid were spiked into the cultures. Sodium citrate buffer adjusted to pH 5.5 was added to each well at a final concentration of 100 mM. Samples were incubated at 20° C. and shaken in a shaking incubator for 2 days. A portion of each of the resulting production cultures was stamped into a well of phosphate buffered saline (PBS). Optical measurements were taken on a plate reader, with absorbance measured at 600 nm and fluorescence at 528 nm with 485 nm excitation. Samples were incubated at 30° C. in a shaking incubator for 2 days. 100% methanol was stamped into the production cultures in half-height deepwell plates. Plates were heat sealed and frozen. Samples were then thawed for 30 min and spun down at 4° C. A portion of the supernatant was stamped into half-area 96 well plates. CBCA, THCA, and CBDA production in the samples was quantified via liquid chromatography-mass spectrometry (LC-MS).
(§2) To determine whether engineering of the A. niger CBCAS identified in Example 1 (corresponding to SEQ ID NO: 29 (with signal peptides); SEQ ID NO: 27 (without signal peptides and including an N-terminal methionine (UniProt accession No. A0A254UC34)); or SEQ ID NO: 25 (without signal peptides and without the N-terminal methionine)), could alter CBCAS substrate specificity, product specificity and/or amounts of products produced, point mutations were generated in A. niger CBCAS and the mutant versions of the protein were expressed in S. cerevisiae. A library containing 1047 A. niger CBCAS mutants was generated and screened. As in Example 1, each CBCAS mutant in the library, as well as the enzymes expressed by positive control strains, included an N-terminal MFalpha2 signal peptide (SEQ ID NO: 16) (with a methionine residue added at the N-terminus of the MFalpha2 signal peptide) and a C-terminal HDEL signal peptide (SEQ ID NO: 17).
(§3) Of the original 1047 library members, 55 strains were elevated to a secondary screen to verify CBCA production. The experimental protocol for the secondary screen was identical to the primary screen, except that additional biological replicates were included per strain, and replicate production cultures for each strain were separately fed 1 mM boluses of olivetolic acid or 1 mM boluses of divaric acid. All strains were screened in quadruplicate.

[2] = test system: CBCA, THCA, and CBDA production; test: In vivo TS activity assay, Example 2 protein engineering of A. niger CBCAS, cultures fed olivetolic acid; assay type: cell-based, S. cerevisiae; conditions: for Mean CBCA / Mean CBDA / Mean THCA: secondary screen, olivetolic acid (Table 8); for % CBCA / % CBDA / % THCA: share of terminal cannabinoid product profile
Method: as §1, §2
Production of compounds of Formulae (9), (10), and/or (11), including compounds of Formulae (9a), (10a), and/or (11a) by strains expressing the mutated versions of A. niger CBCAS was quantified and compared to the production of the same compounds by a strain expressing wild-type A. niger CBCAS, a strain expressing a C. sativa THCAS, and a strain expressing a C. sativa CBDAS. The strains were screened using the same assay described in Example 1. Production of CBCA, THCA, and/or CBDA in the samples was quantified via LC-MS.
as §3

| Molecule | Mean CBCVA [1] [µg/L] | Mean CBDVA [1] [µg/L] | Mean THCVA [1] [µg/L] | average CBCVA titer compared with the A. niger positive control [1] | % CBCVA [1] [%] | % CBDVA [1] [%] | % THCVA [1] [%] | Mean CBCA [2] [µg/L] | Mean CBDA [2] [µg/L] | Mean THCA [2] [µg/L] | % CBCA [2] [%] | % CBDA [2] [%] | % THCA [2] [%] |
| --- | --- | --- | --- | --- | --- | --- | --- | --- | --- | --- | --- | --- | --- |
| B1 | 4388.54 | 0.00 | 2033.77 | higher | 68.33 | 0.00 | 31.67 | 15982.40 | 4419.64 | 957.33 | 74.83 | 20.69 | 4.48 |
| B2 | 4223.36 | 0.00 | 2125.21 | higher | 66.52 | 0.00 | 33.48 | 22893.08 | 7334.92 | 1788.74 | 71.50 | 22.91 | 5.59 |
| B3 | 3998.68 | 0.00 | 1894.39 | higher | 67.85 | 0.00 | 32.15 | 31396.25 | 8775.99 | 1709.83 | 74.96 | 20.95 | 4.08 |
| B4 | 3759.89 | 0.00 | 1591.63 | higher | 70.26 | 0.00 | 29.74 | 21260.42 | 6161.32 | 1575.92 | 73.32 | 21.25 | 5.43 |
| B5 | 4276.65 | 0.00 | 2090.51 | higher | 67.17 | 0.00 | 32.83 | 27895.13 | 7663.58 | 1543.57 | 75.18 | 20.66 | 4.16 |
| B6 | 3847.79 | 0.00 | 1963.40 | higher | 66.21 | 0.00 | 33.79 | 24918.92 | 6931.79 | 1690.72 | 74.29 | 20.67 | 5.04 |
